Consider five sequences from the supplement of paper PMC5998384.

In series [1] the test system is HeLa Kyoto. Briefly: solubility in G1/S (NP-40 vs SDS abundance) (log2 ratio); higher = more soluble. As to conditions: cell cycle stage: G1/S.
In series [2] the test system is HeLa Kyoto. Briefly: solubility change mitosis vs G1/S (difference of NP-40 vs SDS log2 ratios) (log2 ratio difference); higher = more soluble in mitosis.
The test system of series [3] is HeLa Kyoto. Briefly: melting temperature (median over replicates), in situ; higher = more thermally stable.
Series [4] has as its system HeLa Kyoto. Briefly: thermal stability score vs G1/S (z-score of summed log2 fold changes over temperatures); higher = more thermally stable than in G1/S.
Setting [5] is: cell cycle stage: early G1 (4.5 h after nocodazole release).
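For melting temperature (median over replicates), in situ in this document: HeLa Kyoto cells synchronized by double thymidine or nocodazole block, proteins quantified by TMT10plex mass spectrometry, three independent biological replicates.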
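For solubility change mitosis vs G1/S (difference of NP-40 vs SDS log2 ratios) in this document: synchronized HeLa Kyoto cells (double thymidine block for G1/S, nocodazole release for mitosis), protein amounts in NP-40 versus SDS lysates quantified by mass spectrometry, three biological replicates.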
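For solubility in G1/S (NP-40 vs SDS abundance) in this document: HeLa Kyoto cells arrested at G1/S by double thymidine block, proteins quantified by TMT10plex mass spectrometry in mild NP-40 versus SDS extracts, three biological replicates.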
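For thermal stability score vs G1/S (z-score of summed log2 fold changes over temperatures) in this document: synchronized HeLa Kyoto cells, proteins quantified by TMT10plex mass spectrometry, three biological replicates, mitosis taken 0.5 h after nocodazole release, G1/S directly after double thymidine block.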

For “MGFLQLLVVAVLASEHRVAGAAEVFGNSSEGLIEFSVGKFRYFELNRPFPEEAILHDISSNVTFLIFQIHSQYQNTTVSFSPTLLSNSSETGTASGLVFILRPEQSTCTWYLGTSGIQPVQNMAILLSYSERDPVPGGCNLEFDLDIDPNIYLEYNFFETTIKFAPANLGYARGVDPPPCDAGTDQDSRWRLQYDVYQYFLPENDLTEEMLLKHLQRMVSVPQVKASALKVVTLTANDKTSVSFSSLPGQGVIYNVIVWDPFLNTSAAYIPAHTYACSFEAGEGSCASLGRVSSKVFFTLFALLGFFICFFGHRFWKTELFFIGFIIMGFFFYILITRLTPIKYDVNLILTAVTGSVGGMFLVAVWWRFGILSICMLCVGLVLGFLISSVTFFTPLGNLKIFHDDGVFWVTFSCIAILIPVVFMGCLRILNILTCGVIGSYSVVLAIDSYWSTSLSYITLNVLKRALNKDFHRAFTNVPFQTNDFIILAVWGMLAVSGITLQIRRERGRPFFPPHPYKLWKQERERRVTNILDPSYHIPPLRERLYGRLTQIKGLFQKEQPAGERTPLLL [TM7SF3]”, the “solubility in G1/S (log2)” value in series [1] was -0.147. The “solubility change mitosis (log2)” value in series [2] is -0.244. Also, the melting temperature in series [3] (cell cycle stage: G1/S) came out at 56.8 °C; in series [3] (cell cycle stage: mitosis), 55.3 °C. Besides, the thermal stability score in series [4] (setting [5]) was -2.81; in series [4] (cell cycle stage: mitosis), -4.36.

As to “MGGAVVDEGPTGVKAPDGGWGWAVLFGCFVITGFSYAFPKAVSVFFKELIQEFGIGYSDTAWISSILLAMLYGTGPLCSVCVNRFGCRPVMLVGGLFASLGMVAASFCRSIIQVYLTTGVITGLGLALNFQPSLIMLNRYFSKRRPMANGLAAAGSPVFLCALSPLGQLLQDRYGWRGGFLILGGLLLNCCVCAALMRPLVVTAQPGSGPPRPSRRLLDLSVFRDRGFVLYAVAASVMVLGLFVPPVFVVSYAKDLGVPDTKAAFLLTILGFIDIFARPAAGFVAGLGKVRPYSVYLFSFSMFFNGLADLAGSTAGDYGGLVVFCIFFGISYGMVGALQFEVLMAIVGTHKFSSAIGLVLLMEAVAVLVGPPSGGKLLDATHVYMYVFILAGAEVLTSSLILLLGNFFCIRKKPKEPQPEVAAAEEEKLHKPPADSGVDLREVEHFLKAEPEKNGEVVHTPETSV [SLC16A3]”, the “solubility in G1/S (log2)” value in series [1] was determined as 0.106. Further, the “solubility change mitosis (log2)” value in series [2] is -0.161. For the same sequence, the figures for the melting temperature in series [3] (cell cycle stage: G1/S) and in series [3] (cell cycle stage: mitosis) were 60.1 °C and 61.9 °C, respectively. Also, the thermal stability score is -4.29 in series [4] (setting [5]) and -4.22 in series [4] (cell cycle stage: mitosis).

As for “MGGFFSSIFSSLFGTREMRILILGLDGAGKTTILYRLQVGEVVTTIPTIGFNVETVTYKNLKFQVWDLGGQTSIRPYWRCYYSNTDAVIYVVDSCDRDRIGISKSELVAMLEEEELRKAILVVFANKQDMEQAMTSSEMANSLGLPALKDRKWQIFKTSATKGTGLDEAMEWLVETLKSRQ [ARL1]”, in series [1], the “solubility in G1/S (log2)” value is -0.143. Besides, the “solubility change mitosis (log2)” value in series [2] is -0.202. The melting temperature in series [3] (cell cycle stage: G1/S) came out at 50.3 °C; in series [3] (cell cycle stage: mitosis) it was 50.9 °C. The values for the thermal stability score in series [4] (setting [5]) and in series [4] (cell cycle stage: mitosis) were 2.08 and -0.342, respectively.

Consider “MGGKNKKHKAPAAAVVRAAVSASRAKSAEAGIAGEAQSKKPVSRPATAAAAAAGSREPRVKQGPKIYSFNSTNDSSGPANLDKSILKVVINNKLEQRIIGVINEHKKQNNDKGMISGRLTAKKLQDLYMALQAFSFKTKDIEDAMTNTLLYGGDLHSALDWLCLNLSDDALPEGFSQEFEEQQPKSRPKFQSPQIQATISPPLQPKTKTYEEDPKSKPKKEEKNMEVNMKEWILRYAEQQNEEEKNENSKSLEEEEKFDPNERYLHLAAKLLDAKEQAATFKLEKNKQGQKEAQEKIRKFQREMETLEDHPVFNPAMKISHQQNERKKPPVATEGESALNFNLFEKSAAATEEEKDKKKEPHDVRNFDYTARSWTGKSPKQFLIDWVRKNLPKSPNPSFEKVPVGRYWKCRVRVIKSEDDVLVVCPTILTEDGMQAQHLGATLALYRLVKGQSVHQLLPPTYRDVWLEWSDAEKKREELNKMETNKPRDLFIAKLLNKLKQQQQQQQQHSENKRENSEDPEESWENLVSDEDFSALSLESANVEDLEPVRNLFRKLQSTPKYQKLLKERQQLPVFKHRDSIVETLKRHRVVVVAGETGSGKSTQVPHFLLEDLLLNEWEASKCNIVCTQPRRISAVSLANRVCDELGCENGPGGRNSLCGYQIRMESRACESTRLLYCTTGVLLRKLQEDGLLSNVSHVIVDEVHERSVQSDFLLIILKEILQKRSDLHLILMSATVDSEKFSTYFTHCPILRISGRSYPVEVFHLEDIIEETGFVLEKDSEYCQKFLEEEEEVTINVTSKAGGIKKYQEYIPVQTGAHADLNPFYQKYSSRTQHAILYMNPHKINLDLILELLAYLDKSPQFRNIEGAVLIFLPGLAHIQQLYDLLSNDRRFYSERYKVIALHSILSTQDQAAAFTLPPPGVRKIVLATNIAETGITIPDVVFVIDTGRTKENKYHESSQMSSLVETFVSKASALQRQGRAGRVRDGFCFRMYTRERFEGFMDYSVPEILRVPLEELCLHIMKCNLGSPEDFLSKALDPPQLQVISNAMNLLRKIGACELNEPKLTPLGQHLAALPVNVKIGKMLIFGAIFGCLDPVATLAAVMTEKSPFTTPIGRKDEADLAKSALAMADSDHLTIYNAYLGWKKARQEGGYRSEITYCRRNFLNRTSLLTLEDVKQELIKLVKAAGFSSSTTSTSWEGNRASQTLSFQEIALLKAVLVAGLYDNVGKIIYTKSVDVTEKLACIVETAQGKAQVHPSSVNRDLQTHGWLLYQEKIRYARVYLRETTLITPFPVLLFGGDIEVQHRERLLSIDGWIYFQAPVKIAVIFKQLRVLIDSVLRKKLENPKMSLENDKILQIITELIKTENN [DHX29]”, for which, in series [1], the “solubility in G1/S (log2)” value was -0.444. The “solubility change mitosis (log2)” value in series [2] is 0.00585. For the same sequence, the results for the melting temperature in series [3] (cell cycle stage: G1/S) and in series [3] (cell cycle stage: mitosis) were 51.7 °C and 50.7 °C, respectively. The values for the thermal stability score in series [4] (setting [5]) and in series [4] (cell cycle stage: mitosis) were -0.474 and -0.738, respectively.

“MGGLFSRWRTKPSTVEVLESIDKEIQALEEFREKNQRLQKLWVGRLILYSSVLYLFTCLIVYLWYLPDEFTARLAMTLPFFAFPLIIWSIRTVIIFFFSKRTERNNEALDDLKSQRKKILEEVMEKETYKTAKLILERFDPDSKKAKECEPPSAGAAVTARPGQEIRQRTAAQRNLSPTPASPNQGPPPQVPVSPGPPKDSSAPGGPPERTVTPALSSNVLPRHLGSPATSVPGMGLHPPGPPLARPILPRERGALDRIVEYLVGDGPQNRYALICQQCFSHNGMALKEEFEYIAFRCAYCFFLNPARKTRPQAPRLPEFSFEKRQVVEGSSSVGPLPSGSVLSSDNQFNEESLEHDVLDDNTEQTDDKIPATEQTNQVIEKASDSEEPEEKQETENEEASVIETNSTVPGADSIPDPELSGESLTAE”: in series [1], the “solubility in G1/S (log2)” value was -0.311. Moreover, the “solubility change mitosis (log2)” value in series [2] is -0.0648. For the same sequence, the melting temperature in series [3] (cell cycle stage: G1/S) is 55 °C; in series [3] (cell cycle stage: mitosis), 56.9 °C. Further, the values for the thermal stability score in series [4] (setting [5]) and in series [4] (cell cycle stage: mitosis) were -1.47 and -0.475, respectively.
